In patent US20020142982A1, “Method for regulating angiogenesis” (priority 1999, published 2002) one finds restoration of S1P-induced HUVEC chemotaxis by increasing wild-type Akt virus data, which are given here for one substance.

This assay deals with HA-tagged wild-type Akt (UniProt P31749). The experiment in a line: cell-based or functional assay.

Consider “T236A EDG-1 mutant receptor (from UniProt P21453 1-382)”, for which the restoration of S1P-induced HUVEC chemotaxis by increasing wild-type Akt virus amounted to 65%.
